# From patent publication US20250276075A1, “METHODS OF TREATING AXL-EXPRESSING CANCERS WITH ANTI-AXL ANTIBODIES, ANTIBODY FRAGMENTS AND THEIR IMMUNOCONJUGATES” (BIOATLA, INC., priority 2020, published 2025)
# Numbering of substitutions follows the chain as printed. Names and notes keep the numbering of the source.
# T1: Axl (Homo sapiens, UniProt P30530)
# T1 sequence (P30530 26-451 limits assumed): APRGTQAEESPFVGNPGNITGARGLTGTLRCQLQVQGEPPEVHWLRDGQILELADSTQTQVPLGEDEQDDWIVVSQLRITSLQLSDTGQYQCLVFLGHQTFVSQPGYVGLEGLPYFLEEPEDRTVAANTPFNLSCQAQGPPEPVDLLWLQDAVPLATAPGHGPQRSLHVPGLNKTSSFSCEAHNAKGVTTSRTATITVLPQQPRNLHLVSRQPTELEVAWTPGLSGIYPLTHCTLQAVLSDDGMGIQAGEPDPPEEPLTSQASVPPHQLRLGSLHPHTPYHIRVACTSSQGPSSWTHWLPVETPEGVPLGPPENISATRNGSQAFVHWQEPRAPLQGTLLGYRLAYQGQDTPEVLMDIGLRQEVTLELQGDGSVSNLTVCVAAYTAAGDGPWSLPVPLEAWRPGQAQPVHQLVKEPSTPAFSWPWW
# B1: LC-P095W (antibody, V domains shown)
# VH: EVQLVQSGAEVKKPGATVKISCKVSGYSFTGHTMNWIRQPPGKGLEWIGLIKPSNGGTSYNQKFKGRVTISADKSISTAYLQWSSLKASDTAMYYCAHGHYESYFAMDYWGQGTLVTVSS
# VL: DIQMTQSPSSLSASVGDRVTITCKASQDVSSAVAWYQQKPGQAPRLLIYWASTRHTGVPSRFSGSGSGTEFTLTISSLQPDDFATYYCQEHFSTWLTFGQGTKVEIK
# B2: HC-E102F (antibody, V domains shown)
# VH: B1 VH with E102F
# VL: B1 VL with W95P
# B3: HC-Y104C (antibody, V domains shown)
# VH: B1 VH with Y104C
# VL: B1 VL with W95P
# B4: HC-E102L (antibody, V domains shown)
# VH: B1 VH with E102L
# VL: B1 VL with W95P
# B5: HC-Y101N (antibody, V domains shown)
# VH: B1 VH with Y101N
# VL: B1 VL with W95P
# B6: HC-E102V (antibody, V domains shown)
# VH: B1 VH with E102V
# VL: B1 VL with W95P
# B7: HC-H100P (antibody, V domains shown)
# VH: B1 VH with H100P
# VL: B1 VL with W95P
# B8: HC-S103M (antibody, V domains shown)
# VH: B1 VH with S103M
# VL: B1 VL with W95P
# B9: HC-S059T (antibody, V domains shown)
# VH: B1 VH with S59T
# VL: B1 VL with W95P
# B10: HC-E102Y (antibody, V domains shown)
# VH: B1 VH with E102Y
# VL: B1 VL with W95P
# B11: HC-H100D (antibody, V domains shown)
# VH: B1 VH with H100D
# VL: B1 VL with W95P
# B12: HC-S103N (antibody, V domains shown)
# VH: B1 VH with S103N
# VL: B1 VL with W95P
# B13: HC-Y104E (antibody, V domains shown)
# VH: B1 VH with Y104E
# VL: B1 VL with W95P
# B14: HC-S103D (antibody, V domains shown)
# VH: B1 VH with S103D
# VL: B1 VL with W95P
# B15: HC-T033I (antibody, V domains shown)
# VH: B1 VH with T33I
# VL: B1 VL with W95P
# B16: HC-H100R (antibody, V domains shown)
# VH: B1 VH with H100R
# VL: B1 VL with W95P
# B17: HC-H100W (antibody, V domains shown)
# VH: B1 VH with H100W
# VL: B1 VL with W95P
# B18: HC-S103Q (antibody, V domains shown)
# VH: B1 VH with S103Q
# VL: B1 VL with W95P
# B19: HC-H100E (antibody, V domains shown)
# VH: B1 VH with H100E
# VL: B1 VL with W95P
# How the values were obtained:
# [1] = target: T1, Axl; assay: Affinity ELISA of CPE mutant antibodies for binding to Axl at pH 6.0 over pH 7.4; settings: for Affinity ELISA CPE mutant ratio (1:3, pH 6.0/7.4): 1:3 dilution; for Affinity ELISA CPE mutant ratio (1:9, pH 6.0/7.4): 1:9 dilution
# Outline: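 Single-point mutant anti-Axl antibody library (CPE) screened by ELISA for binding at pH 6.0 versus pH 7.4, at 1:3 and 1:9 antibody dilutions, in serum with FLAG-tag detection and carbonate (Krebs-Ringer) buffer. Selection criterion: pH 6.0/pH 7.4 binding ratio ≥1.5 at either dilution.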
# [2] = target: Axl (UniProt P30530); assay: ELISA, 1:3 dilution
# [3] = target: Axl (UniProt P30530); assay: ELISA, 1:9 dilution
# [4] = light chain variable region mutants
# [5] = heavy chain variable region mutants
Molecule,"Affinity ELISA CPE mutant ratio (1:3, pH 6.0/7.4) [1, 4]","Affinity ELISA CPE mutant ratio (1:9, pH 6.0/7.4) [1, 4]","Affinity ELISA CPE mutant ratio (1:3, pH 6.0/7.4) [2]","Affinity ELISA CPE mutant ratio (1:9, pH 6.0/7.4) [3]","Affinity ELISA CPE mutant ratio (1:3, pH 6.0/7.4) [1, 5]","Affinity ELISA CPE mutant ratio (1:9, pH 6.0/7.4) [1, 5]"
B1,2.148,2.263,2.15,2.26,,
B2,,,1.88,1.36,1.879,1.363
B3,,,1.84,1.74,1.845,1.741
B4,,,3.27,2.7,3.266,2.698
B5,,,2.17,2.91,2.174,2.907
B6,,,1.93,2.51,1.931,2.507
B7,,,2.58,1.18,2.575,1.179
B8,,,1.78,1.81,1.784,1.806
B9,,,1.02,1.93,1.021,1.926
B10,,,2.61,1.99,2.610,1.990
B11,,,2.42,3.09,2.416,3.094
B12,,,1.07,3.18,1.075,3.179
B13,,,1.32,1.8,1.321,1.796
B14,,,4.24,2.23,4.237,2.230
B15,,,1.59,1,1.594,1.005
B16,,,1.88,2.51,1.877,2.507
B17,,,4.94,5.91,4.937,5.908
B18,,,0.912,2.26,0.912,2.256
B19,,,2.77,3.62,2.775,3.623
